# B1: RHOBTB3 (parent)
# chain: STTEGIQLAKELGATYLELHSLDD
# Variants of: B1
# Experiment: protein stability index of a GFP-peptide fusion (GPS, HEK-293T) (PSI 1-6); higher = more stable
# Conditions: c terminus: a fixed tail appended
# 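Note: lentivirally expressed fusions sorted by FACS into six bins by GFP to DsRed ratio, PSI derived from sequencing read proportions per bin multiplied by bin number.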
row,Variant,protein stability index
1,STCEGIQLAKELGATYLELHSLDD [T3C],2.22
2,STIEGIQLAKELGATYLELHSLDD [T3I],2.73
3,STREGIQLAKELGATYLELHSLDD [T3R],3.03
4,STQEGIQLAKELGATYLELHSLDD [T3Q],2.84
5,STSEGIQLAKELGATYLELHSLDD [T3S],4.02
6,STEEGIQLAKELGATYLELHSLDD [T3E],4.19
7,STTEGIQLAPELGATYLELHSLDD [K10P],4.33
8,STTEGIQLAFELGATYLELHSLDD [K10F],1.38
9,STTEGIQLAAELGATYLELHSLDD [K10A],2.73
10,STTEGIQLATELGATYLELHSLDD [K10T],1.84
11,STTEGIQLAGELGATYLELHSLDD [K10G],1.71
12,STTEGIQLANELGATYLELHSLDD [K10N],2.84
13,STTEGIQLAWELGATYLELHSLDD [K10W],1.5
14,STTEGIQLAHELGATYLELHSLDD [K10H],3.15
15,STTEGIQLAVELGATYLELHSLDD [K10V],2.06
16,STTEGIQLARELGATYLELHSLDD [K10R],2.99
17,STTEGIQLASELGATYLELHSLDD [K10S],3.13
18,STTEGIQLAQELGATYLELHSLDD [K10Q],3.57
19,STTEGIQLAEELGATYLELHSLDD [K10E],4.35
20,STTPGIQLAKELGATYLELHSLDD [E4P],3.65
21,STTQGIQLAKELGATYLELHSLDD [E4Q],2.71
22,STTVGIQLAKELGATYLELHSLDD [E4V],3.1
23,STTAGIQLAKELGATYLELHSLDD [E4A],3.66
24,STTCGIQLAKELGATYLELHSLDD [E4C],1.66

row,Variant,protein stability index
1,STTFGIQLAKELGATYLELHSLDD [E4F],2.29
2,STTIGIQLAKELGATYLELHSLDD [E4I],2.35
3,STTRGIQLAKELGATYLELHSLDD [E4R],3.42
4,STTTGIQLAKELGATYLELHSLDD [E4T],3.67
5,STTSGIQLAKELGATYLELHSLDD [E4S],3.79
6,STTDGIQLAKELGATYLELHSLDD [E4D],3.44
7,STTHGIQLAKELGATYLELHSLDD [E4H],3.37
8,STTKGIQLAKELGATYLELHSLDD [E4K],4.24
9,STTYGIQLAKELGATYLELHSLDD [E4Y],2.27
10,STTMGIQLAKELGATYLELHSLDD [E4M],2.27
11,STTWGIQLAKELGATYLELHSLDD [E4W],2.58
12,STTGGIQLAKELGATYLELHSLDD [E4G],3.98
13,STTLGIQLAKELGATYLELHSLDD [E4L],1.83
14,STTNGIQLAKELGATYLELHSLDD [E4N],3.58
15,STTEEIQLAKELGATYLELHSLDD [G5E],3.31
16,STTEYIQLAKELGATYLELHSLDD [G5Y],2.91
17,STTEPIQLAKELGATYLELHSLDD [G5P],4.09
18,STTETIQLAKELGATYLELHSLDD [G5T],4.16
19,STTECIQLAKELGATYLELHSLDD [G5C],3.02
20,STTEFIQLAKELGATYLELHSLDD [G5F],2.25
21,STTESIQLAKELGATYLELHSLDD [G5S],3.56
22,STTEIIQLAKELGATYLELHSLDD [G5I],1.92
23,STTERIQLAKELGATYLELHSLDD [G5R],3.89
24,STTEAIQLAKELGATYLELHSLDD [G5A],3.23

row,Variant,protein stability index
1,STTELIQLAKELGATYLELHSLDD [G5L],3.64
2,STTEKIQLAKELGATYLELHSLDD [G5K],3.73
3,STTENIQLAKELGATYLELHSLDD [G5N],4.27
4,STTEWIQLAKELGATYLELHSLDD [G5W],1.56
5,STTEMIQLAKELGATYLELHSLDD [G5M],2.15
6,STTEVIQLAKELGATYLELHSLDD [G5V],3.98
7,STTEDIQLAKELGATYLELHSLDD [G5D],2.49
8,STTEHIQLAKELGATYLELHSLDD [G5H],3.26
9,STTEQIQLAKELGATYLELHSLDD [G5Q],3.94
10,STTEGIMLAKELGATYLELHSLDD [Q7M],2.86
11,STTEGIELAKELGATYLELHSLDD [Q7E],3.71
12,STTEGIPLAKELGATYLELHSLDD [Q7P],3.65
13,STTEGIYLAKELGATYLELHSLDD [Q7Y],3.52
14,STTEGICLAKELGATYLELHSLDD [Q7C],3.49
15,STTEGIILAKELGATYLELHSLDD [Q7I],3.37
16,STTEGIFLAKELGATYLELHSLDD [Q7F],3.37
17,STTEGIKLAKELGATYLELHSLDD [Q7K],3.96
18,STTEGITLAKELGATYLELHSLDD [Q7T],3.68
19,STTEGILLAKELGATYLELHSLDD [Q7L],2.95
20,STTEGIHLAKELGATYLELHSLDD [Q7H],3.99
21,STTEGISLAKELGATYLELHSLDD [Q7S],4.24
22,STTEGINLAKELGATYLELHSLDD [Q7N],3.24
23,STTEGIWLAKELGATYLELHSLDD [Q7W],2.5
24,STTEGIGLAKELGATYLELHSLDD [Q7G],3.36

row,Variant,protein stability index
1,STTEGIALAKELGATYLELHSLDD [Q7A],3.7
2,STTEGIRLAKELGATYLELHSLDD [Q7R],2.19
3,STTEGIVLAKELGATYLELHSLDD [Q7V],3.54
4,STTEGIDLAKELGATYLELHSLDD [Q7D],4.68
5,SGTEGIQLAKELGATYLELHSLDD [T2G],2.54
6,SKTEGIQLAKELGATYLELHSLDD [T2K],3.5
7,SRTEGIQLAKELGATYLELHSLDD [T2R],3.5
8,SETEGIQLAKELGATYLELHSLDD [T2E],4.33
9,SCTEGIQLAKELGATYLELHSLDD [T2C],3.31
10,SHTEGIQLAKELGATYLELHSLDD [T2H],3.68
11,SDTEGIQLAKELGATYLELHSLDD [T2D],4.43
12,SQTEGIQLAKELGATYLELHSLDD [T2Q],3.85
13,SITEGIQLAKELGATYLELHSLDD [T2I],2.07
14,SWTEGIQLAKELGATYLELHSLDD [T2W],1.58
15,SLTEGIQLAKELGATYLELHSLDD [T2L],2.21
16,SVTEGIQLAKELGATYLELHSLDD [T2V],2.81
17,SYTEGIQLAKELGATYLELHSLDD [T2Y],2.37
18,SATEGIQLAKELGATYLELHSLDD [T2A],3.58
19,SPTEGIQLAKELGATYLELHSLDD [T2P],4.02
20,SMTEGIQLAKELGATYLELHSLDD [T2M],2.8
21,SSTEGIQLAKELGATYLELHSLDD [T2S],3.71
22,SNTEGIQLAKELGATYLELHSLDD [T2N],4.11
